Five molecules from patent publication US20230111237A1 (CARLSBERG A S, published 2023) can be followed below.

Numbering of substitutions follows the chain as printed. Numbers in names are those of the source.

This test concerns the target T1, recombinant wild type Hordeum vulgare limit dextrinase (wt HvLD) (Hordeum vulgare).
T1 chain: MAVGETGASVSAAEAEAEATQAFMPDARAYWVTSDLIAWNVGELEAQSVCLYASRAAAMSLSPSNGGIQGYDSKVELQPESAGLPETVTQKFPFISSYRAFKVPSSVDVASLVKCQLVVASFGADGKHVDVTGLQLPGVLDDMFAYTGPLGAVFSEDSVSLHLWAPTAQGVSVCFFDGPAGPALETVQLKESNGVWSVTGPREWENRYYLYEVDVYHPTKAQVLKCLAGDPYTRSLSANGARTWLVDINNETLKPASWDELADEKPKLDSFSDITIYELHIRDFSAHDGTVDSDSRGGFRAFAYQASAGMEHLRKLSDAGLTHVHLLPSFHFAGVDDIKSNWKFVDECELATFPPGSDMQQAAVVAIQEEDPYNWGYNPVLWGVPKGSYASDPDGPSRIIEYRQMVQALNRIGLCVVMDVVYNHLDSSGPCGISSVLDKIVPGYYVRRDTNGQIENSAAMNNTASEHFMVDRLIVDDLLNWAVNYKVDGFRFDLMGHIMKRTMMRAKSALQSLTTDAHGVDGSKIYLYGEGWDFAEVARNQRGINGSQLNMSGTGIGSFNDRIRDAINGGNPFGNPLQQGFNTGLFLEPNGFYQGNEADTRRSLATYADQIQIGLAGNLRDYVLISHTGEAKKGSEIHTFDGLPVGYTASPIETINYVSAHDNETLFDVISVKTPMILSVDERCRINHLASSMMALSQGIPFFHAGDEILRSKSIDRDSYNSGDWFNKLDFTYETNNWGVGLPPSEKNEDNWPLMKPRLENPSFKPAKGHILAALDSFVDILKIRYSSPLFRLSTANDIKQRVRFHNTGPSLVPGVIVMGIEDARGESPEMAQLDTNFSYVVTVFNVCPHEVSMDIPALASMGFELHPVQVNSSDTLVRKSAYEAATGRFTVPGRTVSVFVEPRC
Put plainly: cell-based or functional assay.

B1: wild type Hordeum vulgare limit dextrinase inhibitor (wt HvLDI), recombinant (other)
chain: TLESVKDECQPGVDFPHNPLATCHTYVIKRVCGRGPSRPMLVKERCCRELAAVPDHCRCEALRILMDGVRTPEGRVVEGRLGDRRDCPREEQRAFAATLVTAAECNLSSVQEPGVRLVLLADG
In the case of B1, the “IC50 (µM) of inhibition of HvLD activity (PullG6 assay, 1.5 µM HvLD)” value (from here on “IC50 (µM) of inhibition of HvLD activity”) came out at 1.56 µM.

B2: HvLDI mutant V66M, recombinant (other)
chain: B1 chain with V42M
Regarding B2, the “IC50 (µM) of inhibition of HvLD activity” value was found to be 15.3 µM.

B3: HvLDI mutant E68K, recombinant (other)
chain: B1 chain with E44K
Turning to B3, the “IC50 (µM) of inhibition of HvLD activity” value was 7.1 µM.

B4: HvLDI mutant P60S, recombinant (other)
chain: B1 chain with P36S
Turning to B4, the “IC50 (µM) of inhibition of HvLD activity” value is 10.1 µM.

B5: HvLDI mutant P60L, recombinant (other)
chain: B1 chain with P36L
For B5, the “IC50 (µM) of inhibition of HvLD activity” value is 13.2 µM.
